Where a chain is given by its changes, count along the chain named. Read-outs that look alike come from different tables or passages of the source.
B1: CD71-binding FN3 domain of SEQ ID NO: 472 (designed binder)
chain: MLPAPKNLVVSRVTEDSARLSWTAPDAAFDSFFIGYLEPQPPGEAIELYVPGSERSYDLTGLKPGTEYNVTIQGVKGGFPSLPLVATFTT
notes: Tencon-based FN3 domain
B2: CD71-binding FN3 domain of SEQ ID NO: 373 (designed binder)
chain: B1 chain with E47S, Y49F, L82D, T87S
notes: Tencon-based FN3 domain
B3: CD71-binding FN3 domain of SEQ ID NO: 400 (designed binder)
chain: B1 chain with E47H, Y49F, L82G, V85H
notes: Tencon-based FN3 domain
B4: CD71-binding FN3 domain of SEQ ID NO: 447 (designed binder)
chain: B1 chain with E47Y, L82Y, V85T, T87Q
notes: Tencon-based FN3 domain
B5: CD71-binding FN3 domain of SEQ ID NO: 465 (designed binder)
chain: B1 chain with E47D, L82E, V85W, T87D
notes: Tencon-based FN3 domain
B6: CD71-binding FN3 domain of SEQ ID NO: 473 (designed binder)
chain: B1 chain with E47D, Y49W, V85S, T87S
notes: Tencon-based FN3 domain
B7: CD71-binding FN3 domain of SEQ ID NO: 476 (designed binder)
chain: B1 chain with E47H, Y49Q, L82I, V85I, T87V
notes: Tencon-based FN3 domain
B8: CD71-binding FN3 domain of SEQ ID NO: 478 (designed binder)
chain: B1 chain with E47H, L82V, V85I, T87K
notes: Tencon-based FN3 domain
B9: CD71-binding FN3 domain of SEQ ID NO: 483 (designed binder)
chain: B1 chain with E47T, Y49V, L82D, T87S
notes: Tencon-based FN3 domain
B10: CD71-binding FN3 domain of SEQ ID NO: 496 (designed binder)
chain: B1 chain with E47I, Y49W, L82V, V85I, T87Q
notes: Tencon-based FN3 domain
B11: CD71-binding FN3 domain of SEQ ID NO: 508 (designed binder)
chain: B1 chain with E47T, Y49S, L82E, V85I, T87I
notes: Tencon-based FN3 domain
B12: CD71-binding FN3 domain of SEQ ID NO: 516 (designed binder)
chain: B1 chain with E47S, Y49W, L82S, T87Y
notes: Tencon-based FN3 domain
B13: CD71-binding FN3 domain of SEQ ID NO: 529 (designed binder)
chain: B1 chain with E47D, V85Q, T87H
notes: Tencon-based FN3 domain
B14: CD71-binding FN3 domain of SEQ ID NO: 270 (designed binder)
chain: MSLPAPKNLVVSRVTEDSARLSWTAPDAAFDSFFIGYLEPQPPGEAIHLYVPGSERSYDLTGLKPGTEYNVTIQGVKGGFPSEPLIANSTT
B15: CD71-binding FN3 domain of SEQ ID NO: 281 (designed binder)
chain: B14 chain with H48A, S89F
B16: CD71-binding FN3 domain of SEQ ID NO: 290 (designed binder)
chain: B14 chain with I86V, N88T, S89F
B17: CD71-binding FN3 domain of SEQ ID NO: 331 (designed binder)
chain: B14 chain with G78V, S89F
B18: CD71-binding FN3 domain of SEQ ID NO: 973 (designed binder)
chain: B14 chain with V71G, G78V, S89F
B19: CD71-binding FN3 domain of SEQ ID NO: 333 (designed binder)
chain: B14 chain with K7E, H48A, E83L, I86V, N88T, S89F
B20: CD71-binding FN3 domain of SEQ ID NO: 974 (designed binder)
chain: B14 chain with H48A, E83L, I86V, N88T, S89F
B21: CD71-binding FN3 domain of SEQ ID NO: 335 (designed binder)
chain: B14 chain with H48D, E83L, I86V, N88T, S89F
B22: CD71-binding FN3 domain of SEQ ID NO: 341 (designed binder)
chain: B14 chain with H48E, E83L, I86V, N88I, S89F
B23: CD71-binding FN3 domain of SEQ ID NO: 343 (designed binder)
chain: B14 chain with H48A, Y50W, I86V, N88T, S89F
B24: CD71-binding FN3 domain of SEQ ID NO: 373 conjugated to KRAS2 siRNA (designed binder)
chain: B1 chain with E47S, Y49F, L82D, T87S
modifications: conjugated to KRAS2 tool siRNA; site and linker not stated
B25: CD71-binding FN3 domain of SEQ ID NO: 334 (designed binder)
chain: MSLPAPKNLVVSRVTEDSARLSWTAPDAAFDSFEIAYQELSLWGEAIVLTVPGSERSYDLTGLKPGTEYWVQIGGVKGGIWSSPLVASFTT
notes: not shown: C-terminal poly-histidine tag added to each FN3 domain
B26: CD71-binding FN3 domain of SEQ ID NO: 335 (designed binder)
chain: B14 chain with H48D, E83L, I86V, N88T, S89F
notes: as for B25
B27: CD71-binding FN3 domain of SEQ ID NO: 337 (designed binder)
chain: B14 chain with E83I, N88S, S89F
notes: as for B25
B28: CD71-binding FN3 domain of SEQ ID NO: 341 (designed binder)
chain: B14 chain with H48E, E83L, I86V, N88I, S89F
notes: as for B25
B29: CD71-binding FN3 domain of SEQ ID NO: 342 (designed binder)
chain: B14 chain with H48V, Y50T, S89F
notes: as for B25
B30: CD71-binding FN3 domain of SEQ ID NO: 343 (designed binder)
chain: B14 chain with H48A, Y50W, I86V, N88T, S89F
notes: as for B25
B31: CD71-binding FN3 domain of SEQ ID NO: 336 (designed binder)
chain: MSLPAPKNLVVSRVTEDSARLSWTAPDAAFDSFNIMYHEHYDNGEAIVLTVPGSERSYDLTGLKPGTEYSVVINGVKGGPHSAPLSAIFTT
notes: as for B25
B32: CD71-binding FN3 domain of SEQ ID NO: 340 (designed binder)
chain: MSLPAPKNLVVSRVTEDSSRLSWTAPDAAFDSFEIGYFENLYLGEAIVLTVPGSERSYDLTGLKPGTEYWVQIGGVKGGNWSAPLSAIFTT
notes: as for B25
B33: CD71-binding FN3 domain of SEQ ID NO: 338 (designed binder)
chain: B32 chain with S19A, W70C, Q72Y, G74C, N80R, W81D, A83M
notes: as for B25
B34: CD71-binding FN3 domain of SEQ ID NO: 339 (designed binder)
chain: B32 chain with S19A, F38W, N40M, L41S, L43Y, W70G, Q72S, N80R, A83L
notes: as for B25
B35: CD71-binding FN3 domain of SEQ ID NO: 344 (designed binder)
chain: B32 chain with V10F, S19A, F38W, L41A, L43K
notes: as for B25
B36: CD71-binding FN3 domain of SEQ ID NO: 345 (designed binder)
chain: B32 chain with S19A, R20H, L41D, L43F, W70V, Q72F, N80K
notes: as for B25

Experiments:
[1] = molecular target: T1, human CD71 on cells (SKBR3; SW620-rLuc-KRAS) (human, UniProt P02786 1-760); assay: cell-based or functional assay
[2] = molecular target: T2, cynomolgus monkey CD71 extracellular domain (CD71-ECD) (cynomolgus monkey, UniProt H9EXL1 89-760 (rhesus entry)); assay: capture ELISA, 20 nM antigen on Neutravidin plate, FN3 titrated 250 to 0.3 nM
T2 construct: extracellular domain; It was captured on a Neutravidin plate; also called cynomolgus CD71-ECD
Description: (§1) Select CD71-binding FN3 domains identified in Example 4 above were chosen to determine their binding to both human and cynomolgus monkey CD71 extracellular domain (CD71-ECD). Capture ELISA using CD71 binding to FN3 domains was performed, with the FN3 domains being titrated from 250 nM to 0.3 nM. 20 nM of antigen was incubated on a Neutravidin® plate for 1 hour at room temperature. The FN3 domains were incubated for 16 hours at room temperature.

[3] = molecular target: T3, human CD71 extracellular domain (CD71-ECD) (human, UniProt P02786 89-760); assay: as above
T3 construct: It was captured on a Neutravidin plate; also called hCD71; transferrin receptor 1 ECD
Description: as §1

[4] = molecular target: T1, human CD71 on cells (SKBR3; …); assay: cell-based or functional assay; remark: listed apart in the source
[5] = molecular target: T1, human CD71 on cells (SKBR3; …); assay: cell-based or functional assay; remark: listed apart in the source
[6] = molecular target: T4, apical domain of CD71 (Screen 3: 'cynomolgus apical domain of human CD71') (cynomolgus (as 'cynomolgus apical …)); assay: primary ELISA screen, apical domain of CD71
T4 construct: domain: apical domain; Species is told ambiguously

[7] = molecular target: T5, human CD71 extracellular domain (human, UniProt P02786 89-760); assay: primary ELISA screen, human CD71-ECD
T5 construct: also called hCD71; human CD71-ECD

[8] = molecular target: T4, apical domain of CD71 (Screen 3: …); assay: primary ELISA screen, RLU on apical domain over RLU on HSA
[9] = molecular target: T5, human CD71 extracellular domain; assay: primary ELISA screen, RLU on human CD71-ECD over RLU on HSA

T3 sequence (P02786 89-760): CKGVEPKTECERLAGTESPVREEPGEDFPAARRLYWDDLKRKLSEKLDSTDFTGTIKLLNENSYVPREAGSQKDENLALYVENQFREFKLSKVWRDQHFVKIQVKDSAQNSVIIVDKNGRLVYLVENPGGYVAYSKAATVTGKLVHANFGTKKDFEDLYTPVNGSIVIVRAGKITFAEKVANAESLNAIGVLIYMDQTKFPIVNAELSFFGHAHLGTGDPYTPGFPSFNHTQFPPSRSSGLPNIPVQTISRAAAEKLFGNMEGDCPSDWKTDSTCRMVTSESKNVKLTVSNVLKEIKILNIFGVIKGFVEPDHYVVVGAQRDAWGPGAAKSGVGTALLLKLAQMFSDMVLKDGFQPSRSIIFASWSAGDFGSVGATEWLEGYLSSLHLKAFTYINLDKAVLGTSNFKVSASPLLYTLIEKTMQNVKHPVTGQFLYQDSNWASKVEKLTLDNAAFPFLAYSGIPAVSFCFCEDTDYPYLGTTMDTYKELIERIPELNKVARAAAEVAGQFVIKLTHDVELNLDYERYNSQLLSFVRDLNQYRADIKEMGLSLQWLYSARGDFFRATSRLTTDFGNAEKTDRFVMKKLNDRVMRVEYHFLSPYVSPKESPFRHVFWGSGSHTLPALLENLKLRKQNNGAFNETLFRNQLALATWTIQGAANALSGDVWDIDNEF
T5 sequence (P02786 89-760): as above
T2 sequence (chain, as listed by the source): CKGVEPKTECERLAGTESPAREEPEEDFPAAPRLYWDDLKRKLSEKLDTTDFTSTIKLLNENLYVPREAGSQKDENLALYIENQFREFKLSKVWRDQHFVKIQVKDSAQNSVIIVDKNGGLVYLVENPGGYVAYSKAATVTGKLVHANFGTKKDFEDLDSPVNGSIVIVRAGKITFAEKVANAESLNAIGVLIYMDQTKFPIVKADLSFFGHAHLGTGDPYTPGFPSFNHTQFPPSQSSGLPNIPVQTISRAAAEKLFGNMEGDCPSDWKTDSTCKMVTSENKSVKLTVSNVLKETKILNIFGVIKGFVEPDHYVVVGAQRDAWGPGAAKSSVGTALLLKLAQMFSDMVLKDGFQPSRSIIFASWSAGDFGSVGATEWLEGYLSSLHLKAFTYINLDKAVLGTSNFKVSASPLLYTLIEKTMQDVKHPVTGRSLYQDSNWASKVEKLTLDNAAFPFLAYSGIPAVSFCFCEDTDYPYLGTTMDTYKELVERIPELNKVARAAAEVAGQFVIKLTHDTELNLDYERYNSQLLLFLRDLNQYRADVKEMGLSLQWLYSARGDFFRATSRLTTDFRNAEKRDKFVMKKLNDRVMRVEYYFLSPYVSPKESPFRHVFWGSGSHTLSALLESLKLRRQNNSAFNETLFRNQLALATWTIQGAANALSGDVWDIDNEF
T1 sequence (P02786 whole entry, the tested form may be a part): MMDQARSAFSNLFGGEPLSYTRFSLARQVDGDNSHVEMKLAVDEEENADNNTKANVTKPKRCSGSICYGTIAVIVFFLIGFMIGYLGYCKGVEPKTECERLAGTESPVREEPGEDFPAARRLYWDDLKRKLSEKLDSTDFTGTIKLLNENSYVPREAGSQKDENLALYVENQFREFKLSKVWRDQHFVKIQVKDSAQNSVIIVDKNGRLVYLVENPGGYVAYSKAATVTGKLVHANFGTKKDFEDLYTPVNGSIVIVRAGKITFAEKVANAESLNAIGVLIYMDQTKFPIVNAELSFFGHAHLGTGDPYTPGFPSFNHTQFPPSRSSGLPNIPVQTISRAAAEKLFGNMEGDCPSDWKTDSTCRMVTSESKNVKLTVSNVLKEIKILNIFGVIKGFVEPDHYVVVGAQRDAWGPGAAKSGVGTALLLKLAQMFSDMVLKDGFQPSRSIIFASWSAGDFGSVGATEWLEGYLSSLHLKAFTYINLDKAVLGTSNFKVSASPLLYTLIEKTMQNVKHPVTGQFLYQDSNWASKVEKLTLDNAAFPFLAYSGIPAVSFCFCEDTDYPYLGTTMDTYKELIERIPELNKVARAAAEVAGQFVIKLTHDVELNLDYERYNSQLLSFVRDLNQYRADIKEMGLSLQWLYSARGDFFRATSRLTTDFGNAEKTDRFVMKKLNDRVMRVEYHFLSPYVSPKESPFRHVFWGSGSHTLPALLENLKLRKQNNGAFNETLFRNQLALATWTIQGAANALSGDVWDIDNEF

Binder | CTG EC50 (CellTiter-Glo luminescent assay, SKBR3 cells, 72 h) [1] | EC50 [2] | EC50 [3] | RLU [6] | RLU [7] | Apical domain:HSA [8] | hCD71:HSA [9] | further results
B1 | 0.3 nM | 0.7 nM | 0.4 nM |  |  |  |  | 
B2 | 0.4 nM | 1.6 nM | 0.91 nM |  |  |  |  | 
B3 | 2.9 nM | 4.3 nM | 2.8 nM |  |  |  |  | 
B4 | 71.5 nM | 5 nM | 3.2 nM |  |  |  |  | 
B5 | 1.2 nM | 24.9 nM | 2.5 nM |  |  |  |  | 
B6 | 12.6 nM | 34.9 nM | 4.3 nM |  |  |  |  | 
B7 | 2.7 nM | 17.7 nM | 2.1 nM |  |  |  |  | 
B8 | 0.6 nM | 0.6 nM | 0.4 nM |  |  |  |  | 
B9 | 9.8 nM | 23 nM | 14.1 nM |  |  |  |  | 
B10 | 3 nM | 10.6 nM | 3.9 nM |  |  |  |  | 
B11 | 1.5 nM | 14.2 nM | 5.5 nM |  |  |  |  | 
B12 | 8.4 nM | 10.6 nM | 2.2 nM |  |  |  |  | 
B13 | 7 nM | 2.7 nM | 2.3 nM |  |  |  |  | 
B14 |  |  |  |  |  |  |  | CTG EC50 (CellTiter-Glo luminescent assay, SKBR3 cells, 72 h) [4]: 0.57 nM
B15 |  |  |  |  |  |  |  | CTG EC50 (CellTiter-Glo luminescent assay, SKBR3 cells, 72 h) [4]: 0.06 nM
B16 |  |  |  |  |  |  |  | CTG EC50 (CellTiter-Glo luminescent assay, SKBR3 cells, 72 h) [4]: 0.01 nM
B17 |  |  |  |  |  |  |  | CTG EC50 (CellTiter-Glo luminescent assay, SKBR3 cells, 72 h) [4]: 0.05 nM
B18 |  |  |  |  |  |  |  | CTG EC50 (CellTiter-Glo luminescent assay, SKBR3 cells, 72 h) [4]: 0.07 nM

Binder | CTG EC50 (CellTiter-Glo luminescent assay, SKBR3 cells, 72 h) [1] | EC50 [2] | EC50 [3] | RLU [6] | RLU [7] | Apical domain:HSA [8] | hCD71:HSA [9] | further results
B19 |  |  |  |  |  |  |  | CTG EC50 (CellTiter-Glo luminescent assay, SKBR3 cells, 72 h) [4]: 0.57 nM
B20 |  |  |  |  |  |  |  | CTG EC50 (CellTiter-Glo luminescent assay, SKBR3 cells, 72 h) [4]: 0.15 nM
B21 |  |  |  |  |  |  |  | CTG EC50 (CellTiter-Glo luminescent assay, SKBR3 cells, 72 h) [4]: 0.04 nM
B22 |  |  |  |  |  |  |  | CTG EC50 (CellTiter-Glo luminescent assay, SKBR3 cells, 72 h) [4]: 0.11 nM
B23 |  |  |  |  |  |  |  | CTG EC50 (CellTiter-Glo luminescent assay, SKBR3 cells, 72 h) [4]: 0.21 nM
B24 |  |  |  |  |  |  |  | LSA EC50 (luciferase reporter assay, SW620-rLuc-KRAS cells, 72 h) [5]: 0.15 nM
B25 |  |  |  | 5.45e+06 RLU | 2.7e+06 RLU | 378 ratio | 188 ratio | 
B26 |  |  |  | 5.9e+06 RLU | 5.34e+06 RLU | 103 ratio | 93 ratio | 
B27 |  |  |  | 6.62e+06 RLU | 5.28e+06 RLU | 385 ratio | 307 ratio | 
B28 |  |  |  | 5.31e+06 RLU | 5.35e+06 RLU | 92 ratio | 92 ratio | 
B29 |  |  |  | 5.41e+06 RLU | 4.44e+06 RLU | 13 ratio | 10 ratio | 
B30 |  |  |  | 5.42e+06 RLU | 5.25e+06 RLU | 178 ratio | 172 ratio | 
B31 |  |  |  | 4.31e+06 RLU | 1.15e+06 RLU | 256 ratio | 68 ratio | 
B32 |  |  |  | 5.1e+06 RLU | 3e+06 RLU | 180 ratio | 106 ratio | 
B33 |  |  |  | 5.02e+06 RLU | 2.29e+06 RLU | 125 ratio | 57 ratio | 
B34 |  |  |  | 4.86e+06 RLU | 2.14e+06 RLU | 690 ratio | 303 ratio | 
B35 |  |  |  | 3.4e+06 RLU | 1.33e+06 RLU | 92 ratio | 36 ratio | 
B36 |  |  |  | 4.59e+06 RLU | 2.55e+06 RLU | 195 ratio | 108 ratio | 

From patent publication US20260151494A1 (ARO BIOTHERAPEUTICS, published 2026)
